Numbering of substitutions follows the chain as printed. In names and notes the source's numbering stands.
T1: human CD19 (human, UniProt P15391 20-556)
T1 construct: CD19 as expressed on Raji, NALM-6 and SU-DHL-6 cells; also called CD19 antigen; B-cell surface antigen B4
T1 sequence: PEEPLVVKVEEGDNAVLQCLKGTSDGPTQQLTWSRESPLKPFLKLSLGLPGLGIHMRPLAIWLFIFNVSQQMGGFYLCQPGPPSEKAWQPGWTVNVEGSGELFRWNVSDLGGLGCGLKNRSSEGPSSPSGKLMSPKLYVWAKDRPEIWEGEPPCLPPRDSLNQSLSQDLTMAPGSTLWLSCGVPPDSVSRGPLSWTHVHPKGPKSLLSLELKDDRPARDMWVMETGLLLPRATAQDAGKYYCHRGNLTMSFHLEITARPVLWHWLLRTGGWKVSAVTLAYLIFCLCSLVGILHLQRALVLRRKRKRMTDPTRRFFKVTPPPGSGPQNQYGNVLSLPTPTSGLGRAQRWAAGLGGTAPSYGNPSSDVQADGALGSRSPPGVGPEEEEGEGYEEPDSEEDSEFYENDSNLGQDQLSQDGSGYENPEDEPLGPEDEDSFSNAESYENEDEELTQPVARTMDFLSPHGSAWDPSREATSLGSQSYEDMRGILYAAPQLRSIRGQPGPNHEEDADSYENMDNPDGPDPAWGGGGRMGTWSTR

B1: VH16 R94K/VL43 V3Q/T7S/Y32F/P44I/N92A (antibody, human IgG1, kappa, V domains shown)
VH: QVQLVQSGGGVVQPGRSLRLSCAASGVSLPDYGVSWVRQAPGKGLEWVAVIWGSETTYYNSALKSRFTISRDNSKNTLYLQMNSLRAEDTAVYYCAKHYYYGGSYAMDYWGQGTLVTVSS
VL: DIQMTQSPSSLSASVGDRVTITCRASQDISKFLNWYQQKPGKAIKLLIYHTSRLHSGVPSRFSGSGSGTDFTLTISSLQPEDFATYYCQQGATLPYTFGPGTKVDIKR
notes: human IgG1/kappa
B2: VH16-F67L/VL43-F71Y (antibody, human IgG1, name in Kabat numbering, V domains shown)
VH: B1 VH with F67L, K97R
VL: B1 VL with Q3V, S7T, F32Y, I44P, F71Y, A92N
notes: substitutions in Kabat numbering
B3: VH16-L78V/VL43-F71Y (antibody, human IgG1, name in Kabat numbering, V domains shown)
VH: B1 VH with L78V, K97R
VL: B1 VL with Q3V, S7T, F32Y, I44P, F71Y, A92N
notes: as for B2
B4: VH16 Y32F/R94K/VL43 V3Q/T7S/N92A (antibody, human IgG1, name in Kabat numbering, V domains shown)
VH: B1 VH with Y32F
VL: B1 VL with F32Y, I44P
notes: as for B2
B5: VH16-F67L/VL43-Y87F (antibody, human IgG1, name in Kabat numbering, V domains shown)
VH: B1 VH with F67L, K97R
VL: B1 VL with Q3V, S7T, F32Y, I44P, Y87F, A92N
notes: as for B2
B6: VH16 R94K Y97F VL43 (antibody, human IgG1, name in Kabat numbering, V domains shown)
VH: B1 VH with Y100F
VL: B1 VL with Q3V, S7T, F32Y, I44P, A92N
notes: as for B2
B7: VH16 R94K/Y97F/VL43 V3Q/T7S/N92A (antibody, human IgG1, name in Kabat numbering, V domains shown)
VH: B1 VH with Y100F
VL: B1 VL with F32Y, I44P
notes: as for B2
B8: VH16-R71K/VL43 (antibody, human IgG1, name in Kabat numbering, V domains shown)
VH: B1 VH with R71K, K97R
VL: B1 VL with Q3V, S7T, F32Y, I44P, A92N
notes: as for B2
B9: VH16 R94K Y98F VL43 (antibody, human IgG1, name in Kabat numbering, V domains shown)
VH: B1 VH with Y101F
VL: B1 VL with Q3V, S7T, F32Y, I44P, A92N
notes: as for B2
B10: VH16 Y32F/R94K/VL43 V3Q/T7S/Y32F/N92A (antibody, human IgG1, name in Kabat numbering, V domains shown)
VH: B1 VH with Y32F
VL: B1 VL with I44P
notes: as for B2
B11: VH16 R94K Y96F VL43 (antibody, human IgG1, name in Kabat numbering, V domains shown)
VH: B1 VH with Y99F
VL: B1 VL with Q3V, S7T, F32Y, I44P, A92N
notes: as for B2
B12: VH16-L78V/VL43-Y87F (antibody, human IgG1, name in Kabat numbering, V domains shown)
VH: B1 VH with L78V, K97R
VL: B1 VL with Q3V, S7T, F32Y, I44P, Y87F, A92N
notes: as for B2
B13: VH16-L78V/VL43 (antibody, human IgG1, name in Kabat numbering, V domains shown)
VH: B1 VH with L78V, K97R
VL: B1 VL with Q3V, S7T, F32Y, I44P, A92N
notes: as for B2
B14: VH16-R71K/VL43-P44V (antibody, human IgG1, name in Kabat numbering, V domains shown)
VH: B1 VH with R71K, K97R
VL: B1 VL with Q3V, S7T, F32Y, I44V, A92N
notes: as for B2
B15: VH16-R71K/VL43-Y87F (antibody, human IgG1, name in Kabat numbering, V domains shown)
VH: B1 VH with R71K, K97R
VL: B1 VL with Q3V, S7T, F32Y, I44P, Y87F, A92N
notes: as for B2
B16: VH16 R94K Y32F VL43 (antibody, human IgG1, name in Kabat numbering, V domains shown)
VH: B1 VH with Y32F
VL: B1 VL with Q3V, S7T, F32Y, I44P, A92N
notes: as for B2
B17: VH16-G42R/VL43-P44V (antibody, human IgG1, name in Kabat numbering, V domains shown)
VH: B1 VH with G42R, K97R
VL: B1 VL with Q3V, S7T, F32Y, I44V, A92N
notes: as for B2

Each binder was assayed against T1, human CD19 (assay: flow cytometry, Raji cells, MPF vs chimeric FMC63).
Procedure: Binding of the CD19 humanized monoclonal antibodies by flow cytometry to Raji tumor cells (human Burkitt lymphoma, DSMZ ACC319), NALM-6 (human B cell precursor leukemia, DSMZ ACC128) and SU-DHL-6 (human B cell lymphoma, DSMZ ACC572) (all cell lines from DSMZ Braunschweig, Deutschland) was assessed. Cells were incubated with serial dilutions of each humanized monoclonal antibody. An irrelevant human IgG1 was used as a negative control. The cells were washed and detected by a phycoerythrin-labeled (PE) anti-human secondary antibody (eBioscience, CA, USA) and analyzed by flow cytometry. […] From MFI versus antibody concentration curves, Mid-Point Fluorescence (MPF) value for each anti-CD19 humanized antibody was calculated using the software GraphPad Prism 5 (CA, USA).

Row | relative MPF (% of chimeric FMC63) | binding result | Binder
1 | 111% | – | B1
2 | 6.54% | – | B2
3 | 12.3% | – | B3
4 | 58.8% | – | B4
5 | 4.35% | – | B5
6 | 72.8% | – | B6
7 | – | binds | B7
8 | 4.43% | – | B8
9 | 34.1% | – | B9
10 | – | binds | B10
11 | 5.36% | – | B11
12 | 17.9% | – | B12
13 | 10.8% | – | B13
14 | 6.93% | – | B14
15 | 4.19% | – | B15
16 | 62.5% | – | B16
17 | 8.33% | – | B17

Source: patent US20100215651A1 (GLENMARK PHARMACEUTICALS S A, published 2010)
